Consider 1 molecule from US20210030804A1.

In this experiment the target is CD19 on Nalm6 leukemia cells (UniProt P15391). The experiment is described as follows: cell-based or functional assay.
UniProt P15391, sequence (P15391 20-556 limits assumed): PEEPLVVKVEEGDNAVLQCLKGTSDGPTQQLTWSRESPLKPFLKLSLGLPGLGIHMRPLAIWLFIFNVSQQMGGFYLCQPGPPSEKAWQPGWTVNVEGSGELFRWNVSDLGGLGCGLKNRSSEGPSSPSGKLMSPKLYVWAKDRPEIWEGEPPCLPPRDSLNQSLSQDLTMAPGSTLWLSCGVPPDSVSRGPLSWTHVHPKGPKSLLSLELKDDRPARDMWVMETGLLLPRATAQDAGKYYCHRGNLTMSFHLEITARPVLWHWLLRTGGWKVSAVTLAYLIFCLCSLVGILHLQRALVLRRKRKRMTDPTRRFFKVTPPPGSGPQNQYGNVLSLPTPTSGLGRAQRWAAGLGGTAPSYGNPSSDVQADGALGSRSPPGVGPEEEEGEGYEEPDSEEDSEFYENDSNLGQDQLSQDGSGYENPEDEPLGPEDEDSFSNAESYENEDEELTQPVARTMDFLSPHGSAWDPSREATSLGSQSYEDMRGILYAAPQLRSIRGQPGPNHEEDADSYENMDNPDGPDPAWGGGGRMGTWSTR

B1: CD19 CAR (receptor, from a related filing)
chain: EVKLQQSGAELVRPGSSVKISCKASGYAFSSYWMNWVKQRPGQGLEWIGQIYPGDGDTNYNGKFKGQATLTADKSSSTAYMQLSGLTSEDSAVYFCARKTISSVVDFYFDYWGQGTTVTVSSGGGGSGGGGSGGGGSDIELTQSPKFMSTSVGDRVSVTCKASQNVGTNVAWYQQKPGQSPKPLIYSATYRNSGVPDRFTGSGSGTDFTLTITNVQSKDLADYFCQQYNRYPYTSGGGTKLEIKRAAAIEVMYPPPYLDNEKSNGTIIHVKGKHLCPSPLFPGPSKPFWVLVVVGGVLACYSLLVTVAFIIFWVRSKRSRLLHSDYMNMTPRRPGPTRKHYQPYAPPRDFAAYRSRVKFSRSADAPAYQQGQNQLYNELNLGRREEYDVLDKRRGRDPEMGGKPRRKNPQEGLYNELQKDKMAEAYSEIGMKGERRRGKGHDGLYQGLSTATKDTYDALHMQALPPR
As for B1, the Tumor Cell Killing Percentage (Nalm6 killed, 22 h co-culture, FACS with counting beads); E/T 0.024; CD19 level high is 32%; the Tumor Cell Killing Percentage (Nalm6 killed, 22 h co-culture, FACS with counting beads); E/T 0.024; CD19 level low came to 16.3%; the Tumor Cell Killing Percentage (Nalm6 killed, 22 h co-culture, FACS with counting beads); E/T 0.024; CD19 level medium worked out at 17.2%; the Tumor Cell Killing Percentage (Nalm6 killed, 22 h co-culture, FACS with counting beads); E/T 0.024; CD19 level very low was determined as 0%. In addition, the Tumor Cell Killing Percentage (Nalm6 killed, 22 h co-culture, FACS with counting beads); E/T 0.12; CD19 level high was 63.4%; the Tumor Cell Killing Percentage (Nalm6 killed, 22 h co-culture, FACS with counting beads); E/T 0.12; CD19 level low is 53.3%; the Tumor Cell Killing Percentage (Nalm6 killed, 22 h co-culture, FACS with counting beads); E/T 0.12; CD19 level medium stood at 63.6%; the Tumor Cell Killing Percentage (Nalm6 killed, 22 h co-culture, FACS with counting beads); E/T 0.12; CD19 level very low came out at 0.4%. This molecule also showed a Tumor Cell Killing Percentage (Nalm6 killed, 22 h co-culture, FACS with counting beads); E/T 0.6; CD19 level high of 84.4%; a Tumor Cell Killing Percentage (Nalm6 killed, 22 h co-culture, FACS with counting beads); E/T 0.6; CD19 level low of 77.2%; a Tumor Cell Killing Percentage (Nalm6 killed, 22 h co-culture, FACS with counting beads); E/T 0.6; CD19 level medium of 79.4%; a Tumor Cell Killing Percentage (Nalm6 killed, 22 h co-culture, FACS with counting beads); E/T 0.6; CD19 level very low of 8.37%.
